Assay results as given in US20210040187A1 (INSTITUT PASTEUR, published 2021).

Molecular target: T1, acetylcholine receptor alpha 7 sub-unit (AchR alpha7) (UniProt P36544 23-502)
T1 construct: whole, on cells
Experiment: flow cytometry on AchR alpha7-expressing HEK293 cells, 30 min at 4 C

T1 sequence (P36544 23-502): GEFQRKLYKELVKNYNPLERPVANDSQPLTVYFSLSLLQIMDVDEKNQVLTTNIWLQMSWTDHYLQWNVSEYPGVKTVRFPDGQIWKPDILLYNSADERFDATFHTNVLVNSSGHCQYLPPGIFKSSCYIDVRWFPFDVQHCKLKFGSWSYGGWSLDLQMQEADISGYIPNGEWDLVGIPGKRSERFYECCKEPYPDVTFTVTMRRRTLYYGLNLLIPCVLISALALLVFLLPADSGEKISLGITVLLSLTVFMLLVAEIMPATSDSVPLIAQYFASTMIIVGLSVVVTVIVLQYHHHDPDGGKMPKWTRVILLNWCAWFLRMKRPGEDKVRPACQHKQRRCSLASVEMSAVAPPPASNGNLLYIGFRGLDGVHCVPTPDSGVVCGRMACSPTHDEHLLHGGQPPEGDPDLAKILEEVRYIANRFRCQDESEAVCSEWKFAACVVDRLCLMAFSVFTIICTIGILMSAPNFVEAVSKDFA

B1: VHH2 (MA peptide, VHH A12, StrepTag, NV; lacking the RDP1 sequence) (VHH)
chain: MAEVQLQASGGGLAQPGGSLRLSVTVSGSIDVINNMAWYRQAPGNARELVATITSGFSTNYASSVKGRFTISRDNAKKAVYLQMNSLKPEDTADYYSKVHLIRLGAARAYDYWGQGTQVTVSGGGSAWSHPQFEKAAARRVNRSEPTQHNLRGTGREVSVTPQSGKIISSWEVHGQQTRL
  binding result: no binding (tested: 20 pg)
